Publication PMC2034474

Tested on: HIS-GST-cERCC1 (ERCC1 central domain) (Homo sapiens)
Test: EMSA

**Q.** How did the Kd turn out when “b10 (bubble10, dsDNA with 10 unpaired bases)” was run?
**A.** 2500 nM
